Results as given in IntAct's records for PubMed 30510991.

B1: Forkhead box protein P3 (Homo sapiens), Q9BZS1 (parent)
chain: MPNPRPGKPSAPSLALGPSPGASPSWRAAPKASDLLGARGPGGTFQGRDLRGGAHASSSSLNPMPPSQLQLPTLPLVMVAPSGARLGPLPHLQALLQDRPHFMHQLSTVDAHARTPVLQVHPLESPAMISLTPPTTATGVFSLKARPGLPPGINVASLEWVSREPALLCTFPNPSAPRKDSTLSAVPQSSYPLLANGVCKWPGCEKVFEEPEDFLKHCQADHLLDEKGRAQCLLQREMVQSLEQQLVLEKEKLSAMQAHLAGKMALTKASSVASSDKGSCCIVAAGSQGPVVPAWSGPREAPDSLFAVRRHLWGSHGNSTFPEFLHNMDYFKFHNMRPPFTYATLIRWAILEAPEKQRTLNEIYHWFTRMFAFFRNHPATWKNAIRHNLSLHKCFVRVESEKGAVWTVDELEFRKKRSQRPSRCSNPTPGP

Variants of: B1
Details: with ezh2_human EZH2, Q15910
ezh2_human EZH2, Q15910, sequence (Q15910 whole entry, looked up): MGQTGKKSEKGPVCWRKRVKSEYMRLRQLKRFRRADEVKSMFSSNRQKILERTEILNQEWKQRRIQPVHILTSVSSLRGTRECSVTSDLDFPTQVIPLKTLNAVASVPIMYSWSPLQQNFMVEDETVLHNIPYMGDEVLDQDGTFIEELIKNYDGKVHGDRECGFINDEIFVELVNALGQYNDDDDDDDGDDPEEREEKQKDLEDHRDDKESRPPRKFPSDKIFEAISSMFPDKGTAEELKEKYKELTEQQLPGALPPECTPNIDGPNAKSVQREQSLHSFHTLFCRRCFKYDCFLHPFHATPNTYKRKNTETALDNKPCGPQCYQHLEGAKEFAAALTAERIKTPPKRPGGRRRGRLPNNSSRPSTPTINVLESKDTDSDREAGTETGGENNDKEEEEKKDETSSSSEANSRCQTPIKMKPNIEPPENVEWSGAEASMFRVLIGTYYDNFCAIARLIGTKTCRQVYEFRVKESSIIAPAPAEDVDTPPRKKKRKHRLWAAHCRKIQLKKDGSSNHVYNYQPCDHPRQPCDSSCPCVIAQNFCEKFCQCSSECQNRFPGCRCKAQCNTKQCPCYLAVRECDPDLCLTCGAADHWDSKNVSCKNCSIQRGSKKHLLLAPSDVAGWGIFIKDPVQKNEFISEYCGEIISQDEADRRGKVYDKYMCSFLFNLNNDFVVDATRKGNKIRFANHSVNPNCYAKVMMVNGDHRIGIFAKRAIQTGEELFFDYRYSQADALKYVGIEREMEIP

effect of a mutation on the interaction	Variant
decreasing interaction	C232G
